From US20180142032A1 (Sanofi, published 2018)
Substitutions are numbered along the chain they refer to.

B1: MAb3 (antibody, V domains shown)
VH: QIQLVQSGPELKKPGETVKISCKASGYIFTNYGMNWVKQAPGKGLKWMGWINTYTGESRYADDFKGRFALSLETSASTAYLQINNLENEDMATYFCAREDYYGNSPWFFDVWGAGTTVTVSS
VL: DIQMTQTTSSLSASLGDRVTISCNASQGINKYLNWYQQKPDGTVKLLIYYTSTLHSGVPSRFSGSGSGTDYSLTINNLEPEDIATYYCQQYTKLPFTFGSGTKLEIK
notes: murine monoclonal IgG, kappa, from hybridoma; also called murine MAb3
B2: huMAb1_1 (antibody, human IgG1, kappa)
heavy: not shown
light: DIQMTQSPSSLSASVGDRVTITCKASQDIDRYMAWYQDKPGKAPRLLIHDTSTLQSGVPSRFSGSGSGRDYTLTISNLEPEDFATYYCLQYDNLWTFGGGTKVEIKRTVAAPSVFIFPPSDEQLKSGTASVVCLLNNFYPREAKVQWKVDNALQSGNSQESVTEQDSKDSTYSLSSTLTLSKADYEKHKVYACEVTHQGLSSPVTKSFNRGEC
notes: humanized, VH1-huIgG1 and VL1-huCk
B3: MAb2 (antibody, mouse IgG1, kappa)
heavy: QVQLQQSAAELARPGASVKMSCKASGYTFTSYTMHWVKQRPGQGLEWIGYFNPSSGYPEYNQKFKDKTTLTADKSSNTAFIQLNSLTSEDSAVYYCSRGYYYGSRGYALDFWGQGASVTVSSAKTTPPSVYPLAPGSAAQTNSMVTLGCLVKGYFPEPVTVTWNSGSLSSGVHTFPAVLQSDLYTLSSSVTVPSSTWPSETVTCNVAHPASSTKVDKKIVPRDCGCKPCICTVPEVSSVFIFPPKPKDVLTITLTPKVTCVVVDISKDDPEVQFSWFVDDVEVHTAQTQPREEQFNSTFRSVSELPIMHQDWLNGKEFKCRVNSAAFPAPIEKTISKTKGRPKAPQVYTIPPPKEQMAKDKVSLTCMITDFFPEDITVEWQWNGQPAENYKNTQPIMDTDGSYFVYSKLNVQKSNWEAGNTFTCSVLHEGLHNHHTEKSLSHSPGK
light: NIVLTQSPVSLAVSLGQRATISCRASESVDINGNTFMHWYQQKPGQSPKLVIYAASNIESGVPARFSGSGSSTDFTFTIDPVEADDVATYYCQQNIEDPWTFGGGTKVEIKRADAAPTVSIFPPSSEQLTSGGASVVCFLNNFYPKDINVKWKIDGSERQNGVLNSWTDQDSKDSTYSMSSTLTLTKDEYERHNSYTCEATHKTSTSPIVKSFNRNEC
notes: murine monoclonal IgG, kappa, from hybridoma; also called murine MAb2
B4: MAb1 (antibody, mouse IgG2a, kappa)
heavy: QVQLQQSGAELVKPGASVKMSCKASGYIFTNYNIHWVKKSPGQGLEWIGAIYPGNGDAPYSQKFKDKATLTADKSSSTTYMQLSRLTSEDSAVYYCVRANWDVAFAYWGQGTLVSVSAAKTTAPSVYPLAPVCGDTTGSSVTLGCLVKGYFPEPVTLTWNSGSLSSGVHTFPAVLQSDLYTLSSSVTVTSSTWPSQSITCNVAHPASSTKVDKKIEPRGPTIKPCPPCKCPAPNLLGGPSVFIFPPKIKDVLMISLSPIVTCVVVDVSEDDPDVQISWFVNNVEVHTAQTQTHREDYNSTLRVVSALPIQHQDWMSGKEFKCKVNNKDLPAPIERTISKPKGSVRAPQVYVLPPPEEEMTKKQVTLTCMVTDFMPEDIYVEWTNNGKTELNYKNTEPVLDSDGSYFMYSKLRVEKKNWVERNSYSCSVVHEGLHNHHTTKSFSRTPGK
light: DIQMTQSPPSLSASLGGKVTITCKASQDIDRYMAWYQDKPGKGPRLLIHDTSTLQPGIPSRFSGSGSGRDYSFSISNLEPEDIATYYCLQYDNLWTFGGGTKLEIKRADAAPTVSIFPPSSEQLTSGGASVVCFLNNFYPKDINVKWKIDGSERQNGVLNSWTDQDSKDSTYSMSSTLTLTKDEYERHNSYTCEATHKTSTSPIVKSFNRNEC
notes: murine monoclonal IgG, kappa, from hybridoma; also called murine MAb1

Legend:
[1] = target: T1, human LAMP1 at the cell surface (human, UniProt P11279 29-417); assay: flow cytometry, dissociated CR-IGR-034P colon PDX cells
T1 construct: native on tumour cells (PDX, Colo205, SW480, LS174T) or from the cloned CDS NM_005561.3 in HEK293 and HCT116; signal peptide 1-28 left out; also called huLAMP1; full length human LAMP1
T1 sequence: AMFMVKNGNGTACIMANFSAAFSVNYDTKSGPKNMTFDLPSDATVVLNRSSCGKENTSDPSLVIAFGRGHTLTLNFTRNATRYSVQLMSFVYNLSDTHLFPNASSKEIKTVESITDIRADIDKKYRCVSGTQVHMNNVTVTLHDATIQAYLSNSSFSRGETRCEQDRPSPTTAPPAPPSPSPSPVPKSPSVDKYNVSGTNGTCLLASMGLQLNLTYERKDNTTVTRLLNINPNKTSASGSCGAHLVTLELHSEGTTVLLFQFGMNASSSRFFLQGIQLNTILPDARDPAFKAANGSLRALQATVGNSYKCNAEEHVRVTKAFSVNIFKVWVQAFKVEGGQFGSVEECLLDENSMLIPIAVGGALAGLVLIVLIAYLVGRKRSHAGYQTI
Experimental: (§1) Advanced human primary colon tumor CR-IGR-034P was obtained from Patient-derived xenograft in mice. Tumor CR-IGR-034P was enzymatically dissociated using collagenase Type IV (Invitrogen; #17104-019) and deoxyribonuclease I (Invitrogen; #18047-019) for 1 h at 4° C. Cell viability was estimated by Viacount application using Guava® easyCyte™ 8HT Flow Cytometry System. […] 100 μL/well of goat anti-mouse IgG conjugated with Alexa647 (Invitrogen; # A2135) or goat anti-human IgG conjugated with Alexa488 (Invitrogen; # A11013) was added for 45 min at 4° C. and washed three times with PBS 1% BSA. The antibody binding was evaluated after centrifugation and resuspension of cells by adding 200 μl/well PBS 1% BSA and read using Guava® easyCyte™ 8HT Flow Cytometry System. EC50 values were estimated using BIOST@T-SPEED software.

[2] = target: T1, human LAMP1 at the cell surface; assay: flow cytometry, HCT116 huLAMP1 clone 8
Experimental: HCT116 cells were infected by a lentiviral vector allowing stable integration of the human or the cynomolgus LAMP1 CDS in genomic DNA of cells. Individual clones with different densities of human or cynomolgus LAMP1 cell surface localization were derived from a pool of HCT116 infected cells. […] 100 μL/well of goat anti-human IgG conjugated with Alexa488 (Invitrogen; # A11013) was added for 1 h at 4° C. and washed two times with PBS 1% BSA. The antibody binding was evaluated after centrifugation and resuspension of cells in 100 μl fixing solution (paraformaldehyde at 4% in PBS). Samples were read using Galaxy® Flow Cytometry System (Partec). EC50 values were estimated using BIOST@T-SPEED software.

[3] = target: T2, hLAMP1_ΔGYQTI (human, UniProt P11279 29-412); assay: flow cytometry, transfected 293-F cells
T2 construct: also called pXL5626
T2 sequence: T1 sequence with G385A, Y386A, Q387A, T388A, I389A

[4] = target: T3, LAMP1::histag (human, UniProt P11279 29-382); assay: ELISA on recombinant human LAMP1
T3 construct: extracellular domain without signal peptide, C-terminal 6 His tag, made in HEK293 cells; also called recombinant human LAMP1; human LAMP1 (29-382)
T3 sequence: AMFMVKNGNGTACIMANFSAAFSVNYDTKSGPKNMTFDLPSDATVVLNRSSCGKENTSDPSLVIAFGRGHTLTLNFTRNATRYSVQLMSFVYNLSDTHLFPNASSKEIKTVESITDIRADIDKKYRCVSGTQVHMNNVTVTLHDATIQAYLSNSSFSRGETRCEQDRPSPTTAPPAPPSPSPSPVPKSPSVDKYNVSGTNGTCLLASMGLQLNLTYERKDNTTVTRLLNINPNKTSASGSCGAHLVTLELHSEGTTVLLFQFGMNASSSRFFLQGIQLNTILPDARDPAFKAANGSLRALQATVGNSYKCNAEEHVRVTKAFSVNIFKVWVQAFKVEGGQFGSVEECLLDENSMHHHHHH

[5] = target: T3, LAMP1::histag; assay: ELISA with LAMP1
[6] = target: T4, mLAMP1_hseq6_ΔGYQTI (mouse; human, UniProt P11438 25-369); assay: flow cytometry, transfected 293-F cells, experiment 1
T4 construct: on cells; numbering read as for pXL6041; also called pXL6047; not shown: murine transmembrane domain and cytoplasmic tail with GYQTI replaced by 5 Ala
T4 chain: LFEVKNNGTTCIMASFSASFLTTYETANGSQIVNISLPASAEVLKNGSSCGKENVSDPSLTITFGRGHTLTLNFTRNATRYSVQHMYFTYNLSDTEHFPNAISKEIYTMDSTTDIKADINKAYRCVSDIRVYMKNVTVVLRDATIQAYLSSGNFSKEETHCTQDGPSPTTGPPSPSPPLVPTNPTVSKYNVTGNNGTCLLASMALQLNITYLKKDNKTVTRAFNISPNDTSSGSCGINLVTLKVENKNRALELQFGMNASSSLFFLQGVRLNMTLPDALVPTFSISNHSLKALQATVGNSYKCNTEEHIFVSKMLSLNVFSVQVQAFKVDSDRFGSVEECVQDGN

[7] = target: T3, LAMP1::histag; assay: ELISA on secreted LAMP1
[8] = target: T5, LAMP1_mseq1_ΔGYQTI (mouse; human); assay: flow cytometry, transfected 293-F cells
T5 construct: on cells; also called pXL6012

[9] = target: T1, human LAMP1 at the cell surface; assay: flow cytometry, dissociated CR-IGR-034P colon PDX cells; CR-IGR-034P colon tumor cells
Experimental: as §1

T5 sequence (P11279 other isoform, or with tags, fused parts or gaps mutant): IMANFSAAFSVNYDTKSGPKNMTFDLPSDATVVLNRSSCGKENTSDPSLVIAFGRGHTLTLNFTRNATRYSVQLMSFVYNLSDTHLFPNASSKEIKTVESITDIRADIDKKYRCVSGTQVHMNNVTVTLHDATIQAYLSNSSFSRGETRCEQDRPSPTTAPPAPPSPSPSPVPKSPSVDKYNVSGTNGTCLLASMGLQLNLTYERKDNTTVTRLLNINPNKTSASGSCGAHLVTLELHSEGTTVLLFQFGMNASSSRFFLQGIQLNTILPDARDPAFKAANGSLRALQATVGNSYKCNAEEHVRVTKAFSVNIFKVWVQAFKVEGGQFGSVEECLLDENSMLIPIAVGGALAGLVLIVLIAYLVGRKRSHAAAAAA

Row | Binder | EC50 [1] [nM] | EC50 [2] [nM] | mean fluorescence [3] | EC50 [4] [nM] | EC50 [5] [nM] | binding result [6] | mean fluorescence [6] | EC50 [7] [nM] | mean fluorescence [8] | EC50 [9] [nM]
1 | B1 | 6 | – | – | – | – | – | – | – | – | –
2 | B2 | – | 15 | 864 | – | – | – | – | – | – | –
3 | B3 | 14 | – | – | 0.25 | 0.25 | no binding | 25 | ~0.3 | 105 | –
4 | B4 | – | – | – | 0.18 | 0.18 | no binding | 7 | ~0.2 | 1030 | 5
